For experiment [1], the target named is T1, GST (glutathione-S-transferase control) (UniProt P08515 1-218 = GST, covalently coupled to NHS-activated Sepharose resin).
T1 construct: also called GST-Sepharose; GST control
The experiment is described as follows: GST-Sepharose pull-down from M1 cell lysate, Coomassie gel and Western blot. The protocol: M1 cells (2 ×10^10) were lysed on ice for 30 min in 100 ml of lysis buffer supplemented with protease inhibitors (Complete Cocktail tablets; Boehringer Mannheim, Mannheim, Germany), 1 mM PMSF, 1 mM Na_3VO_4 and 1 mM NaF. The total cell lysate was centrifuged at 15,000 rpm (SS34 rotor) for 15 min at 4° C. and the clarified supernatant pre-incubated with 1 ml of GST-Sepharose resin for 2 h at 4° C. Half the GST-Sepharose-depleted M1 cell lysate was incubated with 1 ml of GST-SOCS-1 SOCS box- and the other half with GST-SOCS-3 SOCS box-Sepharose resin for 2 h at 4° C. The affinity resins were washed with 40 ml of lysis buffer and then eluted with 8×0.5 ml of elation buffer. Eluates were concentrated to ~40 μl, mixed with 15 μl of 4×SDS sample buffer containing 0.4 M DTT and resolved on a 14% polyacrylamide gel (Novex). The gel was stained for 5 min with 0.1% w/v Coomassie blue in 50% w/v methanol and destained in 12% w/v methanol and 7% w/v acetic acid.
Isolated SOCS box sequences were used as affinity reagents to identify interacting proteins in cell lysates. […] (GST) fusion proteins containing the SOCS box sequences from SOCS-1 or SOCS-3 were coupled to Sepharose beads and used as affinity resins to bind proteins from M1 cell lysates. […]
(In western blotting, separated proteins are transferred to a membrane and probed.)

The target of experiment [2] is T2, elongin C (endogenous, murine M1 cells) (murine, UniProt P83940 1-112).
T2 construct: Endogenous protein from cell lysate; present together with elongin B; also called 15 kDa band
The experiment in a line: anti-FLAG M2 immunoprecipitation from M1 cells, FLAG peptide elution, Western blot. Here is the method:
FIG. 2 is a photographic representation showing competition of SOCS-1 SOCS box interaction with elongin C. Biotinylated SOCS-1 SOCS box peptide was immobilized on streptavidin-agarose resin and used to affinity purify interacting proteins from M1 cellular extracts in the presence (+) or absence (–) of […] competing non-biotinylated SOCS box peptides. Proteins were separated by SDS-PAGE on a 4–15% w/v acrylamide gel, and bands were visualized by silver staining. Soluble SOCS box peptides corresponding to SOCS-1, ASB-2 and WSB-2 prevented binding of elongin C to immobilized SOCS-1 SOCS box FIG. 3 is a photographic representation showing interaction of SOCS-1 with endogenous elongins B and C. Cellular extracts from M1 cells stably expressing either full-length SOCS-1 or SOCS-1 lacking SOCS box (both proteins were N-terminally FLAG-tagged) were incubated with anti-FLAG antibody M2 resin and bound cellular proteins were eluted from the columns with FLAG peptide as described in Materials and Methods. Lanes 1–3 correspond to column eluates 3 to 5 from M1 cells expressing full-length SOCS-1 and lanes 4–6 correspond to column eluates 3 to 5 from M1 cells expressing SOCS-1 lacking SOCS box. The panels from top to bottom correspond to Western blot analyses by anti-FLAG, anti-elongin C, anti-elongin B, and a mixture of anti-elongin B and anti-elongin C, respectively. […]

The target of experiment [3] is cullin 2 (endogenous, M1 cells) (murine, UniProt Q9D4H8 1-745). The experiment in a line: anti-FLAG affinity column from unstimulated M1 cells, FLAG peptide elution, Western blot. The text has this: (§1) The inventors passed lysates from 10^9 unstimulated M1 cells expressing FLAG-tagged SOCS-1 through an anti-FLAG affinity column which was then eluted with FLAG peptide. The eluate was then subjected to SDS-PAGE and the proteins were Western blotted. The blot was then probed with anti-FLAG antibodies to confirm the presence of SOCS-1 and with a range of antibodies against proteins thought to interact with SOCS-1 (FIG. 7). It can be seen that SOCS-1 is capable of forming a complex with elongin B and elongin C, cullin 2, as well as JAK1 and gp130. To determine whether proteins in this complex interact directly or indirectly with SOCS-1, or whether all the proteins can be found together in a single complex, or whether separate complexes are, for example, formed between SOCS-1, JAK-1 and gp130 on one hand and between SOCS-1, elongin B and C and cullin-2, is addressed in part by performing the primary immunoprecipitation using a different antibody.
cullin 2 (endogenous, M1 cells), sequence (Q9D4H8 whole entry): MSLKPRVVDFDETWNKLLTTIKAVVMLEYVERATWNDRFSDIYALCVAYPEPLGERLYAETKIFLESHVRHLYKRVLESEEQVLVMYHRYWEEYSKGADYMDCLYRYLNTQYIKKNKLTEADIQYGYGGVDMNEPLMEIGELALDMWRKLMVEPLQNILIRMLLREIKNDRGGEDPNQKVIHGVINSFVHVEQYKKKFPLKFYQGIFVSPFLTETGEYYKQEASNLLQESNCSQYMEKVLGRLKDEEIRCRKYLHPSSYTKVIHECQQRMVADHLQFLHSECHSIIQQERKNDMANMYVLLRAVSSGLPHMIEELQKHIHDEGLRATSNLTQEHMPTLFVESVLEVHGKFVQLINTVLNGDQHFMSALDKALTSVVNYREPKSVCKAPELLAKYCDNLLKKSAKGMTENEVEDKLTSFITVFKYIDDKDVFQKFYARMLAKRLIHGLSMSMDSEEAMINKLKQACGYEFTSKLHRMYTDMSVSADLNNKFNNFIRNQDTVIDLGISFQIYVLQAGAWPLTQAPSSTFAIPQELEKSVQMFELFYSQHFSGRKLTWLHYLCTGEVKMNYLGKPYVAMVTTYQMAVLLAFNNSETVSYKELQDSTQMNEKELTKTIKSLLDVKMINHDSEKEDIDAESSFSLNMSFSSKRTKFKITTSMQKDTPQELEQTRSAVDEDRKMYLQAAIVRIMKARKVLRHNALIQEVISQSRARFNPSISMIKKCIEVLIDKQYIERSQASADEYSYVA

In experiment [4] the target is JAK1 (endogenous, M1 cells) (murine, UniProt P52332 1-1153). Described as above.
JAK1 (endogenous, M1 cells), sequence (P52332 whole entry): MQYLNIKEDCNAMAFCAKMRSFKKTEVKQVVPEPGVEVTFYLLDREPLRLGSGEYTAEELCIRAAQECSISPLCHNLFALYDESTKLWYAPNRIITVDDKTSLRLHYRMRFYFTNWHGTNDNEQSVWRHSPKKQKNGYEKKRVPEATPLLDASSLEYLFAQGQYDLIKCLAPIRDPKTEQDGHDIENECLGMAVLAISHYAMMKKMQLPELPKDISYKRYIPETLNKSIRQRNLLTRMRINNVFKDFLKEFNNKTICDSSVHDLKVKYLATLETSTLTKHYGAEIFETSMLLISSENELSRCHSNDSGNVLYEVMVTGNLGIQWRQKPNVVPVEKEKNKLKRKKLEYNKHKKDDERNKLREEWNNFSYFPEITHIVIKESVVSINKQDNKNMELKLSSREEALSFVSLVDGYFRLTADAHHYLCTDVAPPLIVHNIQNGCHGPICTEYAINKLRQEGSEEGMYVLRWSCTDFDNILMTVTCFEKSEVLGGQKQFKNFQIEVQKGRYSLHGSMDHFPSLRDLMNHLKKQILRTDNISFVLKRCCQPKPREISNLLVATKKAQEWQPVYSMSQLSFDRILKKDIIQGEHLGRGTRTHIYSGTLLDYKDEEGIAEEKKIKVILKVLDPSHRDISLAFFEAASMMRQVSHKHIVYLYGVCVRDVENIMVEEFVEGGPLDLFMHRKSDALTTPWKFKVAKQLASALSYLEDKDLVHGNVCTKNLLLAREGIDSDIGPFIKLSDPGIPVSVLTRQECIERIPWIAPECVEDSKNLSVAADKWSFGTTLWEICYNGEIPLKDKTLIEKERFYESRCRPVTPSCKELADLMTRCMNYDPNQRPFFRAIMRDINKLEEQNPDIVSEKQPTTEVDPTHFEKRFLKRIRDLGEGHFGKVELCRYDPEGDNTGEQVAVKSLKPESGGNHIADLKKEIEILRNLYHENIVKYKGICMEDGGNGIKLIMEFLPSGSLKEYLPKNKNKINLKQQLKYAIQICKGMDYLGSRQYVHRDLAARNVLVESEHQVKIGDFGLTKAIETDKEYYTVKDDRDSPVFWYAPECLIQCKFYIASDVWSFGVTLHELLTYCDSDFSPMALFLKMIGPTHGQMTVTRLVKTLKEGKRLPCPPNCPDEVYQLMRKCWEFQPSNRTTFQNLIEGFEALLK
Text: as §1

Experiment [5] addresses T3, gp130 (endogenous, M1 cells) (murine, UniProt Q00560 23-917).
T3 sequence (looked up): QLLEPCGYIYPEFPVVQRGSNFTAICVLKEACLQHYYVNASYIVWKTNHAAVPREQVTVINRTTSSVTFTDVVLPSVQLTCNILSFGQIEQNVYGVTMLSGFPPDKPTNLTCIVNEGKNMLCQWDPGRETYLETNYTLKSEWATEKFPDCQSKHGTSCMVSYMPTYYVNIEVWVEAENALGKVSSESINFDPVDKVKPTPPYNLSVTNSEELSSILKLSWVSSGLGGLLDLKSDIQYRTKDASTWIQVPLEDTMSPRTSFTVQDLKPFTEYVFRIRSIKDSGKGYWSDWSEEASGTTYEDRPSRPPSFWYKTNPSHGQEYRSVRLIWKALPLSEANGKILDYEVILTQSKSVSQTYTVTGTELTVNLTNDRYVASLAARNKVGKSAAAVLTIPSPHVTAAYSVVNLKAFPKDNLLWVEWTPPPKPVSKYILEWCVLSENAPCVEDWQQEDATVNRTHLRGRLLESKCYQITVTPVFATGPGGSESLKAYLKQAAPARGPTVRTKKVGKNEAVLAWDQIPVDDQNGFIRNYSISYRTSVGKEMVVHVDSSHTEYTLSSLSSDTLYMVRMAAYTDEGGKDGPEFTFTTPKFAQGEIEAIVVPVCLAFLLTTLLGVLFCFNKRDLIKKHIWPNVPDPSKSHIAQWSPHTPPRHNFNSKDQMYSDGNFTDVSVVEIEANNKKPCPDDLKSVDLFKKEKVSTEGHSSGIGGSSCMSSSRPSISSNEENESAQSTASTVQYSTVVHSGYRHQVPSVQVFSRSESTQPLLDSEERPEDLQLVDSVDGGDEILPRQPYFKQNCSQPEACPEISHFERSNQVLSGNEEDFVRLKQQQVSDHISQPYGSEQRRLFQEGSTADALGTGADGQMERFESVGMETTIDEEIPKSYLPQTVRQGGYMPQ
The description is as above.
Text: as §1

Experiment [6] concerns the target T4, FLAG-tagged SSB-1 truncated form lacking only the SOCS box (mouse, UniProt Q9D5L7 1-231, limits assumed).
T4 construct: domain: SSB-1 lacking only the SOCS box; Transiently expressed in 293T cells; also called truncated form of SSB-1 lacking only the SOCS box
T4 sequence: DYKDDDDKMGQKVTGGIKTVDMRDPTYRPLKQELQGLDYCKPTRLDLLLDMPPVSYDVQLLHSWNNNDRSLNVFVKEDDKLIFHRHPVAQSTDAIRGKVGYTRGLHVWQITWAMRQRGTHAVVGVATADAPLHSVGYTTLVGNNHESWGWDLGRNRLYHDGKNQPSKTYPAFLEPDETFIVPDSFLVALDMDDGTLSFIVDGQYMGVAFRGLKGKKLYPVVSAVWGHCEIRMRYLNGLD
The experiment in a line: co-immunoprecipitation with anti-myc from transfected 293T cells, Western blot with anti-FLAG. From the text: To further confirm the generality of this interaction for other proteins containing a SOCS box, 293T fibroblasts were transfected with N-terminally FLAG-tagged WSB-2 or SSB-1 along with elongin B containing a FLAG epitope or elongin C containing a myc epitope.

Data on four molecules can be found in patent US7078174 (WALTER AND ELIZA HALL INSTITUTE OF MEDICAL RESEARCH, dated 2006).

T1 sequence (P08515 whole entry): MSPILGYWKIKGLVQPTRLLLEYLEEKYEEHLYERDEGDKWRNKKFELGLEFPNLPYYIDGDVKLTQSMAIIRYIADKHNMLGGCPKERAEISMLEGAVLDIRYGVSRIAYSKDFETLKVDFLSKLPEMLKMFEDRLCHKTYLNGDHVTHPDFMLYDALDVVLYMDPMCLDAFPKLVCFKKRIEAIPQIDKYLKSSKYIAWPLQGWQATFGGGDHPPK

B1: elongin B (endogenous, murine M1 cells) (other, UniProt P62869 1-118, looked up)
chain: MDVFLMIRRHKTTIFTDAKESSTVFELKRIVEGILKRPPEEQRLYKDDQLLDDGKTLGECGFTSQTARPQAPATVGLAFRADDTFEALRIEPFSSPPELPDVMKPQDSGGSANEQAVQ
notes: Endogenous protein from cell lysate; also called 18 kDa band
For the molecule B1, the binding result in experiment [1] was “no binding”.

B2: N-terminally FLAG-tagged full-length SOCS-1 (other, mouse)
chain: DYKDDDDKMVARNQVAADNAISPAAEPRRRSEPSSSSSSSSPAAPVRPRPCPAVPAPAPGDTHFRTFRSHSDYRRITRTSALLDACGFYWGPLSVHGAHERLRAEPVGTFLVRDSRQRNCFFALSVKMASGPTSIRVHFQAGRFHLDGSRETFDCLFELLEHYVAAPRRMLGAPLRQRRVRPLQELCRQRIVAAVGRENLARIPLNPVLRDYLSSFPFQI
notes: Stably expressed in M1 cells; also called FLAG-tagged SOCS-1; intact SOCS-1
For B2, the binding result in experiment [2], in experiment [3], in experiment [4] and in experiment [5] was “binds” each time.

B3: elongin C containing a myc epitope (other, mouse)
chain: DQKLISEEDLMDGEEKTYGGCEGPDAMYVKLISSDGHEFIVKREHALTSGTIKAMLSGPGQFAENETNEVNFREIPSHVLSKVCMYFTYKVRYTNSSTEIPEFPIAPEIALELLMAANFLDC
notes: Transiently expressed in 293T cells; also called myc-elongin C
For B3, the binding result in experiment [6] is reported as “no binding”.

B4: elongin B containing a FLAG epitope (other, mouse)
chain: DYKDDDDKMDVFLMIRRHKTTIFTDAKESSTVFELKRIVEGILKRPPEEQRLYKDDQLLDDGKTLGECGFTSQTARPQAPATVGLAFRADDTFEALRIEPFSSPPELPDVMKPQDSGGSANEQAVQ
notes: Transiently expressed in 293T cells; also called FLAG-elongin B
As for B4, in experiment [6], the binding result is listed as “no binding”.
